Experimental data as given in patent US20110263827A1 (AbbVie / Abbott, published 2011).

Experiments:
ErbB3 [1] = target: T1, ErbB3 (UniProt P21860 20-643, limits assumed, biotinylated); assay: direct bind ELISA, N-term VD;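 also: antibody or DVD-Ig preparations bound to immobilized target antigen on ELISA plates, 1 h at room temperature, TMB detection read as absorbance at 450 nm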
T1 construct: ELISA antigen

EGFR [2] = target: T2, EGFR (UniProt P00533 25-645, limits assumed, biotinylated); assay: direct bind ELISA, C-term VD;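 also: ELISA with antibody or DVD-Ig preparations applied to target antigen-coated plates for 1 h at room temperature, TMB colour development, absorbance read at 450 nm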
T2 construct: ELISA antigen; construct not described

EGFR [3] = target: T2, EGFR; assay: direct bind ELISA, N-term VD;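 also: antibody or DVD-Ig preparations bound to immobilized target antigen on ELISA plates, 1 h at room temperature, TMB detection read as absorbance at 450 nm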
ErbB3 [4] = target: T1, ErbB3; assay: direct bind ELISA, C-term VD;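 also: ELISA with antibody or DVD-Ig preparations applied to target antigen-coated plates for 1 h at room temperature, TMB colour development, absorbance read at 450 nm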

Row | EC50 (ErbB3 [1]) | EC50 (EGFR [2]) | EC50 (EGFR [3]) | EC50 (ErbB3 [4]) | Binder
1 | 1.55 nM | 15.2 nM | – | – | DVD770 (bispecific antibody, DVD-Ig; HC L, LC L; variable parts only) VH: QVQLQQWGAGLLKPSETLSLTCAVYGGSFSGYYWSWIRQPPGKGLEWIGEINHSGSTNYNPSLKSRVTISVETSKNQFSLKLSSVTAADTAVYYCARDKWTWYFDLWGRGTLVTVSSASTKGPSVFPLAPQVQLQESGPGLVKPSQTLSLTCTVSGYSISSDFAWNWIRQPPGKGLEWMGYISYSGNTRYQPSLKSRITISRDTSKNQFFLKLNSVTAADTATYYCVTAGRGFPYWGQGTLVTVSS VL: DIEMTQSPDSLAVSLGERATINCRSSQSVLYSSSNRNYLAWYQQNPGQPPKLLIYWASTRESGVPDRFSGSGSGTDFTLTISSLQAEDVAVYYCQQYYSTPRTFGQGTKVEIKRTVAAPSVFIFPPDIQMTQSPSSMSVSVGDRVTITCHSSQDINSNIGWLQQKPGKSFKGLIYHGTNLDDGVPSRFSGSGSGTDYTLTISSLQPEDFATYYCVQYAQFPWTFGGGTKLEIKR
2 | 2.06 nM | 67.3 nM | – | – | DVD800 (bispecific antibody, DVD-Ig; HC L, LC S; variable parts only) VH: QVQLQQWGAGLLKPSETLSLTCAVYGGSFSGYYWSWIRQPPGKGLEWIGEINHSGSTNYNPSLKSRVTISVETSKNQFSLKLSSVTAADTAVYYCARDKWTWYFDLWGRGTLVTVSSASTKGPSVFPLAPQVQLQESGPGLVKPSQTLSLTCTVSGYSISSDFAWNWIRQPPGKGLEWMGYISYSGNTRYQPSLKSRITISRDTSKNQFFLKLNSVTAADTATYYCVTAGRGFPYWGQGTLVTVSS VL: DIEMTQSPDSLAVSLGERATINCRSSQSVLYSSSNRNYLAWYQQNPGQPPKLLIYWASTRESGVPDRFSGSGSGTDFTLTISSLQAEDVAVYYCQQYYSTPRTFGQGTKVEIKRTVAAPDIQMTQSPSSMSVSVGDRVTITCHSSQDINSNIGWLQQKPGKSFKGLIYHGTNLDDGVPSRFSGSGSGTDYTLTISSLQPEDFATYYCVQYAQFPWTFGGGTKLEIKR
3 | 1.43 nM | 42.7 nM | – | – | DVD830 (bispecific antibody, DVD-Ig; HC S, LC L; variable parts only) VH: QVQLQQWGAGLLKPSETLSLTCAVYGGSFSGYYWSWIRQPPGKGLEWIGEINHSGSTNYNPSLKSRVTISVETSKNQFSLKLSSVTAADTAVYYCARDKWTWYFDLWGRGTLVTVSSASTKGPQVQLQESGPGLVKPSQTLSLTCTVSGYSISSDFAWNWIRQPPGKGLEWMGYISYSGNTRYQPSLKSRITISRDTSKNQFFLKLNSVTAADTATYYCVTAGRGFPYWGQGTLVTVSS VL: DIEMTQSPDSLAVSLGERATINCRSSQSVLYSSSNRNYLAWYQQNPGQPPKLLIYWASTRESGVPDRFSGSGSGTDFTLTISSLQAEDVAVYYCQQYYSTPRTFGQGTKVEIKRTVAAPSVFIFPPDIQMTQSPSSMSVSVGDRVTITCHSSQDINSNIGWLQQKPGKSFKGLIYHGTNLDDGVPSRFSGSGSGTDYTLTISSLQPEDFATYYCVQYAQFPWTFGGGTKLEIKR
4 | 1.14 nM | 94.9 nM | – | – | DVD328 (bispecific antibody, DVD-Ig; HC S, LC S; variable parts only) VH: QVQLQQWGAGLLKPSETLSLTCAVYGGSFSGYYWSWIRQPPGKGLEWIGEINHSGSTNYNPSLKSRVTISVETSKNQFSLKLSSVTAADTAVYYCARDKWTWYFDLWGRGTLVTVSSASTKGPQVQLQESGPGLVKPSQTLSLTCTVSGYSISSDFAWNWIRQPPGKGLEWMGYISYSGNTRYQPSLKSRITISRDTSKNQFFLKLNSVTAADTATYYCVTAGRGFPYWGQGTLVTVSS VL: DIEMTQSPDSLAVSLGERATINCRSSQSVLYSSSNRNYLAWYQQNPGQPPKLLIYWASTRESGVPDRFSGSGSGTDFTLTISSLQAEDVAVYYCQQYYSTPRTFGQGTKVEIKRTVAAPDIQMTQSPSSMSVSVGDRVTITCHSSQDINSNIGWLQQKPGKSFKGLIYHGTNLDDGVPSRFSGSGSGTDYTLTISSLQPEDFATYYCVQYAQFPWTFGGGTKLEIKR
5 | – | – | 3.26 nM | 27.7 nM | DVD755 (bispecific antibody, DVD-Ig; HC S, LC S; variable parts only) VH: QVQLQESGPGLVKPSQTLSLTCTVSGYSISSDFAWNWIRQPPGKGLEWMGYISYSGNTRYQPSLKSRITISRDTSKNQFFLKLNSVTAADTATYYCVTAGRGFPYWGQGTLVTVSSASTKGPEVQLLESGGGLVQPGGSLRLSCAASGFTFSHYVMAWVRQAPGKGLEWVSSISSSGGWTLYADSVKGRFTISRDNSKNTLYLQMNSLRAEDTAVYYCTRGLKMATIFDYWGQGTLVTVSS VL: DIQMTQSPSSMSVSVGDRVTITCHSSQDINSNIGWLQQKPGKSFKGLIYHGTNLDDGVPSRFSGSGSGTDYTLTISSLQPEDFATYYCVQYAQFPWTFGGGTKLEIKRTVAAPQSALTQPASVSGSPGQSITISCTGTSSDVGSYNVVSWYQQHPGKAPKLIIYEVSQRPSGVSNRFSGSKSGNTASLTISGLQTEDEADYYCCSYAGSSIFVIFGGGTKVTVLG
6 | 3.14 nM | 18 nM | – | – | DVD788 (bispecific antibody, DVD-Ig; HC L, LC L; variable parts only) VH: EVQLLESGGGLVQPGGSLRLSCAASGFTFSHYVMAWVRQAPGKGLEWVSSISSSGGWTLYADSVKGRFTISRDNSKNTLYLQMNSLRAEDTAVYYCTRGLKMATIFDYWGQGTLVTVSSASTKGPSVFPLAPQVQLQESGPGLVKPSQTLSLTCTVSGYSISSDFAWNWIRQPPGKGLEWMGYISYSGNTRYQPSLKSRITISRDTSKNQFFLKLNSVTAADTATYYCVTAGRGFPYWGQGTLVTVSS VL: QSALTQPASVSGSPGQSITISCTGTSSDVGSYNVVSWYQQHPGKAPKLIIYEVSQRPSGVSNRFSGSKSGNTASLTISGLQTEDEADYYCCSYAGSSIFVIFGGGTKVTVLGQPKAAPSVTLFPPDIQMTQSPSSMSVSVGDRVTITCHSSQDINSNIGWLQQKPGKSFKGLIYHGTNLDDGVPSRFSGSGSGTDYTLTISSLQPEDFATYYCVQYAQFPWTFGGGTKLEIKR
7 | 3.32 nM | 19.3 nM | – | – | DVD818 (bispecific antibody, DVD-Ig; HC L, LC S; variable parts only) VH: EVQLLESGGGLVQPGGSLRLSCAASGFTFSHYVMAWVRQAPGKGLEWVSSISSSGGWTLYADSVKGRFTISRDNSKNTLYLQMNSLRAEDTAVYYCTRGLKMATIFDYWGQGTLVTVSSASTKGPSVFPLAPQVQLQESGPGLVKPSQTLSLTCTVSGYSISSDFAWNWIRQPPGKGLEWMGYISYSGNTRYQPSLKSRITISRDTSKNQFFLKLNSVTAADTATYYCVTAGRGFPYWGQGTLVTVSS VL: QSALTQPASVSGSPGQSITISCTGTSSDVGSYNVVSWYQQHPGKAPKLIIYEVSQRPSGVSNRFSGSKSGNTASLTISGLQTEDEADYYCCSYAGSSIFVIFGGGTKVTVLGQPKAAPDIQMTQSPSSMSVSVGDRVTITCHSSQDINSNIGWLQQKPGKSFKGLIYHGTNLDDGVPSRFSGSGSGTDYTLTISSLQPEDFATYYCVQYAQFPWTFGGGTKLEIKR
8 | 31.4 nM | 77.2 nM | – | – | DVD772 (bispecific antibody, DVD-Ig; HC L, LC L; variable parts only) VH: EVQLVESGGGLVQPGGSLRLSCAASGFTFSIYSMNWVRQAPGKGLEWVSYISSSSSTIYYADSVKGRFTISRDNAKNSLYLQMNSLRDEDTAVYYCARDRGDFDAFDIWGQGTMVTVSSASTKGPSVFPLAPQVQLQESGPGLVKPSQTLSLTCTVSGYSISSDFAWNWIRQPPGKGLEWMGYISYSGNTRYQPSLKSRITISRDTSKNQFFLKLNSVTAADTATYYCVTAGRGFPYWGQGTLVTVSS VL: DIQMTQSPSSLSASVGDRVTITCQASQDITNYLNWYQQKPGKAPKLLIYDASNLETGVPSRFSGSGSGTDFTFTISSLQPEDIATYNCQQCENFPITFGQGTRLEIKRTVAAPSVFIFPPDIQMTQSPSSMSVSVGDRVTITCHSSQDINSNIGWLQQKPGKSFKGLIYHGTNLDDGVPSRFSGSGSGTDYTLTISSLQPEDFATYYCVQYAQFPWTFGGGTKLEIKR
9 | 11.1 nM | 726 nM | – | – | DVD802 (bispecific antibody, DVD-Ig; HC L, LC S; variable parts only) VH: EVQLVESGGGLVQPGGSLRLSCAASGFTFSIYSMNWVRQAPGKGLEWVSYISSSSSTIYYADSVKGRFTISRDNAKNSLYLQMNSLRDEDTAVYYCARDRGDFDAFDIWGQGTMVTVSSASTKGPSVFPLAPQVQLQESGPGLVKPSQTLSLTCTVSGYSISSDFAWNWIRQPPGKGLEWMGYISYSGNTRYQPSLKSRITISRDTSKNQFFLKLNSVTAADTATYYCVTAGRGFPYWGQGTLVTVSS VL: DIQMTQSPSSLSASVGDRVTITCQASQDITNYLNWYQQKPGKAPKLLIYDASNLETGVPSRFSGSGSGTDFTFTISSLQPEDIATYNCQQCENFPITFGQGTRLEIKRTVAAPDIQMTQSPSSMSVSVGDRVTITCHSSQDINSNIGWLQQKPGKSFKGLIYHGTNLDDGVPSRFSGSGSGTDYTLTISSLQPEDFATYYCVQYAQFPWTFGGGTKLEIKR
10 | 1.19 nM | 62.4 nM | – | – | DVD832 (bispecific antibody, DVD-Ig; HC S, LC L; variable parts only) VH: EVQLVESGGGLVQPGGSLRLSCAASGFTFSIYSMNWVRQAPGKGLEWVSYISSSSSTIYYADSVKGRFTISRDNAKNSLYLQMNSLRDEDTAVYYCARDRGDFDAFDIWGQGTMVTVSSASTKGPQVQLQESGPGLVKPSQTLSLTCTVSGYSISSDFAWNWIRQPPGKGLEWMGYISYSGNTRYQPSLKSRITISRDTSKNQFFLKLNSVTAADTATYYCVTAGRGFPYWGQGTLVTVSS VL: DIQMTQSPSSLSASVGDRVTITCQASQDITNYLNWYQQKPGKAPKLLIYDASNLETGVPSRFSGSGSGTDFTFTISSLQPEDIATYNCQQCENFPITFGQGTRLEIKRTVAAPSVFIFPPDIQMTQSPSSMSVSVGDRVTITCHSSQDINSNIGWLQQKPGKSFKGLIYHGTNLDDGVPSRFSGSGSGTDYTLTISSLQPEDFATYYCVQYAQFPWTFGGGTKLEIKR
11 | 1.29 nM | 224 nM | – | – | DVD330 (bispecific antibody, DVD-Ig; HC S, LC S; variable parts only) VH: EVQLVESGGGLVQPGGSLRLSCAASGFTFSIYSMNWVRQAPGKGLEWVSYISSSSSTIYYADSVKGRFTISRDNAKNSLYLQMNSLRDEDTAVYYCARDRGDFDAFDIWGQGTMVTVSSASTKGPQVQLQESGPGLVKPSQTLSLTCTVSGYSISSDFAWNWIRQPPGKGLEWMGYISYSGNTRYQPSLKSRITISRDTSKNQFFLKLNSVTAADTATYYCVTAGRGFPYWGQGTLVTVSS VL: DIQMTQSPSSLSASVGDRVTITCQASQDITNYLNWYQQKPGKAPKLLIYDASNLETGVPSRFSGSGSGTDFTFTISSLQPEDIATYNCQQCENFPITFGQGTRLEIKRTVAAPDIQMTQSPSSMSVSVGDRVTITCHSSQDINSNIGWLQQKPGKSFKGLIYHGTNLDDGVPSRFSGSGSGTDYTLTISSLQPEDFATYYCVQYAQFPWTFGGGTKLEIKR
